Columns and labels:
Experiment in all cases: cell-based or functional assay
KLK2 [1] = target: T1, KLK2 (UniProt P20151 25-261, limits assumed)
KLK2 [2] = target: T1, KLK2; remark: listed apart in the source
PSMA = PSMA (UniProt Q04609 44-750, limits assumed)
Sequence of PSMA (Q04609 44-750 limits assumed): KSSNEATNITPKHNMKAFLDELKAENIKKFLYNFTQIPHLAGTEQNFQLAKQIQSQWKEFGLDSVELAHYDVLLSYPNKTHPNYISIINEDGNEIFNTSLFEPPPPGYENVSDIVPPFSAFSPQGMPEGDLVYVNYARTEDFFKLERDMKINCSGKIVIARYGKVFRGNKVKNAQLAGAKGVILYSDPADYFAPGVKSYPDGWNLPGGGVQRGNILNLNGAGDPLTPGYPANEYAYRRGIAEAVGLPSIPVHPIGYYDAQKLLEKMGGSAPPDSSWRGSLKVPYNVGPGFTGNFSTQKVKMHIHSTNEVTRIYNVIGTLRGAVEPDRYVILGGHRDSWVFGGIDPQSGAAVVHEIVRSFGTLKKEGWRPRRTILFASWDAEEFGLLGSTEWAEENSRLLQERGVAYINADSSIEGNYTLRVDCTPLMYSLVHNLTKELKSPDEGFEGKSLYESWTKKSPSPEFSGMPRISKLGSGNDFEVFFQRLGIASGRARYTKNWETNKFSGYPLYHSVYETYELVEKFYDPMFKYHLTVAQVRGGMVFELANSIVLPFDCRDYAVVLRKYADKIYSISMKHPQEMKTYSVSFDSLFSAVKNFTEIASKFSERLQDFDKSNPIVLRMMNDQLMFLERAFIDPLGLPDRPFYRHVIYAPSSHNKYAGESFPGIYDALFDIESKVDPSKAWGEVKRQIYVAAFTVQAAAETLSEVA

T1 sequence (P20151 25-261 limits assumed): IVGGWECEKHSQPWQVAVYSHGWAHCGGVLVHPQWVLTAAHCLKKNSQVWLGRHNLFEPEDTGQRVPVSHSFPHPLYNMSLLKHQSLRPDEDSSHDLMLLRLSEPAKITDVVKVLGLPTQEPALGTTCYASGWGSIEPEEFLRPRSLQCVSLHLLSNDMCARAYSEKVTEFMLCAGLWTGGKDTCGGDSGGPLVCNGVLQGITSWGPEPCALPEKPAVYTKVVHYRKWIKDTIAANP

Binder	ADCC activity, cell killing of VCaP cells by PBMC (KLK2 [1]) [%]	EC50 (M), ADCC killing of VCaP cells by PBMC at 48 hour (KLK2 [2]) [M]	In vitro ADCC killing EC50 (M), C42B cells, NK cells, 24 hour (PSMA) [M]	In vitro ADCC killing EC50 (M), C42B cells, PBMC, 6 hour (PSMA) [M]	In vitro ADCC killing EC50 (M), LNCaP cells, NK cells, 24 hour (PSMA) [M]	In vitro ADCC killing EC50 (M), LNCaP cells, PBMC, 6 hour (PSMA) [M]
KL2B870 (antibody, human IgG1, kappa) heavy: not shown light: DIQMTQSPSFLSASVGDRVTITCRASQGISSYLAWYQQKPGKAPKFLIYAASTLQSGVPSRFSGSGSGTEFTLTISSLQPEDFATYYCQQLNSYPLTFGGGTKVEIKRTVAAPSVFIFPPSDEQLKSGTASVVCLLNNFYPREAKVQWKVDNALQSGNSQESVTEQDSKDSTYSLSSTLTLSKADYEKHKVYACEVTHQGLSSPVTKSFNRGEC	~73	1e-09	–	–	–	–
KL2B872.CLF (antibody, human IgG1, kappa) heavy: not shown light: DIQMTQSPSFLSASVGDRVTITCRASQGISSYLAWYQQKPGKAPKFLIYAASTLQSGVPSRFSGSGSGTEFTLTISSLQPEDFATYYCQQLNSYPLTFGGGTKVEIKRTVAAPSVFIFPPSDEQLKSGTASVVCLLNNFYPREAKVQWKVDNALQSGNSQESVTEQDSKDSTYSLSSTLTLSKADYEKHKVYACEVTHQGLSSPVTKSFNRGEC	~85	4.12e-10	–	–	–	–
KL2B870.CLF (antibody, human IgG1, kappa) heavy: not shown light: DIQMTQSPSFLSASVGDRVTITCRASQGISSYLAWYQQKPGKAPKFLIYAASTLQSGVPSRFSGSGSGTEFTLTISSLQPEDFATYYCQQLNSYPLTFGGGTKVEIKRTVAAPSVFIFPPSDEQLKSGTASVVCLLNNFYPREAKVQWKVDNALQSGNSQESVTEQDSKDSTYSLSSTLTLSKADYEKHKVYACEVTHQGLSSPVTKSFNRGEC	~89	3.54e-10	–	–	–	–
PSMB952 (antibody, V domains shown) VH: EVQLVESGGGLVQPGGSLRLSCAASGFTFSSYAMSWVRQAPGKGLEWVSAISGGIGSTYYADSVKGRFTISRDNSKNTLWLQMNSLRAEDTAVYYCAKDGVGATPYYFDYWGQGTLVTVSS VL: QSVLTQPPSVSAAPGQKVTISCSGSSSNIGINYVSWYQQLPGTAPKLLIYDNNKRPSGIPDRFSGSKSGTSATLGITGLQTGDEADYYCGTWDSSLSAVVFGGGTKLTVL	–	–	2.45e-11	3.51e-10	4.59e-11	2.01e-10
PSMB956 (antibody, V domains shown) VH: EVQLVESGGGLVQPGGSLRLSCAASGFTFSSYAMSWVRQAPGKGLEWVSAISGGSGSTYYADSVKGRFTISRDNSKNTLYLQMNSLRAEDSAVYYCAKDGVGATPYYFDYWGQGTLVTVSS VL: QSVLTQPPSVSAAPGQKVTISCSGSSSNIGINYVSWYQQLPGTAPKLLIYDNNKRPSGIPDRFSGSKSGTSATLGITGLQTGDEADYYCGTWDSSLSAVVFGGGTKLTVL	–	–	9.96e-12	4.23e-10	3.58e-11	1.52e-10

Reference: patent US20250011454A1 (published 2025)
